Test results published in patent US20130071835A1, “Qualitative and Quantitative Analytical Method for Analyzing the Activity Type of an Enzyme that is Activated by Proteolysis” (Nanoenteck, Inc., priority 2010, published 2013).

Target: T1, Lp-PLA2 (Homo sapiens, UniProt Q13093)
T1 construct: purchased diaDexus, USA
T1 sequence (Q13093 22-441): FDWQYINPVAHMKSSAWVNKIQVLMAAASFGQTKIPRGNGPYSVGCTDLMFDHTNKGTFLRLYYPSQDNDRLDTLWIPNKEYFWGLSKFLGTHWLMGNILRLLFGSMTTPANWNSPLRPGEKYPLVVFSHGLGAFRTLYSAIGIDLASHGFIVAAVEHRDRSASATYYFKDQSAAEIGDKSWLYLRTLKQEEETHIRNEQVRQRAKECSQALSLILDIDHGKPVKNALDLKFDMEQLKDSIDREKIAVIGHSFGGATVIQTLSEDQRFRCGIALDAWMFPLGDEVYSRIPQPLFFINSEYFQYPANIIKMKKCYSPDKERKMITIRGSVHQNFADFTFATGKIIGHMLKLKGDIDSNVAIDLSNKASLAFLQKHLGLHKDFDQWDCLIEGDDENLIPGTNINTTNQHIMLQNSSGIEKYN
Experiment: Competition binding of Lp-PLA2 to Apo C-III-coated microplate (ELISA, absorbance)
Method: After Apo C-III was diluted with 100 mM carbonate buffer (pH 9.5) at a concentration of 2 μg/ml, the Apo C-III solution (100 μl) was added to each well in a microplate, which was coated at 37° C. incubator for 2 hrs. And then, the Apo C-III solution was removed from each well and 200 μl PBS supplemented with 1% BSA was added to each well. After incubation at 37° C. incubator, the solution was removed from each well that was then dried.
Tween-20 (0.05%)-containing PBS buffer (pH 7.4) was used for dilution, reaction and washing buffer in the experiment. Each 100 μl Lp-PLA2 (1 μg/ml) was added to Apo C-III-coated microplate well (FIG. 2a). Or, Lp-PLA2 and Apo C-III was diluted at a final concentration of 1 μg/ml and 0.5 μg/ml, respectively, and the solution (100 μl) was added to Apo C-III-coated microplate well (FIG. 2b). Each reaction preparation was incubated at 37° C. incubator for 50 min, and then removed from the well, followed by washing 2 times. Anti-Lp-PLA2 antibody solution (100 μl) diluted to 5 μg/ml was added to the washed well and incubated at 37° C. incubator for 50 min. The solution was removed and each well was washed 2 times. […] After 100 μl H2SO4 (2 N) was added to each washed well, the absorbance was measured. The measurement of absorbance utilized TECAN Infinit M200: wavelength measurement, 450 nm; and calibration wavelength, 620 nm. […]

Final signal intensity (absorbance: Ab 620 nm), mean (Lp-PLA2 1 μg/ml plus free Apo C-III 0.5 μg/ml added to Apo C-III-coated microplate well, Lp-PLA2 alone gave 0.208): 0.130
reduction of signal compared with sample without free Apo C-III (Lp-PLA2 1 μg/ml plus free Apo C-III 0.5 μg/ml, Apo C-III-coated microplate): 37.6%
Substance: Apolipoprotein C-III [Apo C-III]
